How the values were obtained:
[1] = tested on: T1, peptide AARKKRISVKKKQEQ (SEQ ID NO:8)
T1 sequence: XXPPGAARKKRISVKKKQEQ

[2] = tested on: T2, ubiquitin specific protease 8 peptide RARRDSLKKIEIW (SEQ ID NO:136)
T2 sequence: RARRDSLKKIEIW

[3] = tested on: T3, GABRB2 peptide QKKSRLRRRASQLKI (SEQ ID NO:84)
T3 sequence: QKKSRLRRRASQLKI

[4] = tested on: T4, peptide EILSRRPSYRKILND (SEQ ID NO:25)
T4 sequence: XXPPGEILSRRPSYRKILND

[5] = tested on: T5, SPTBN4 peptide EGGDRRASGRRK (SEQ ID NO:110)
T5 sequence: EGGDRRASGRRK

[6] = tested on: T6, beta adducin peptide PSKSPSKKKKKFRTPSFLKK (SEQ ID NO:137)
T6 sequence: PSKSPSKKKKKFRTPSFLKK

[7] = tested on: T7, peptide VQQLLRSSNRRLEQL (SEQ ID NO:49)
T7 sequence: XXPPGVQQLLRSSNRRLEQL

[8] = tested on: T8, kinesin 3C peptide LEKRGMLGKRPRRKSSRRKK (SEQ ID NO:133)
T8 sequence: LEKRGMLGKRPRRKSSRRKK

[9] = tested on: T9, nuclear RNA export factor 3 peptide VRYTPYTISPYNRKGSFRKQ (SEQ ID NO:143)
T9 sequence: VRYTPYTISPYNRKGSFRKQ

[10] = tested on: T10, peptide DDMEHKTLKITDFG (SEQ ID NO:55)
T10 sequence: XXPPGDDMEHKTLKITDFG

[11] = tested on: T11, NMDAR1 peptide RAITSTLASSFKRRR (SEQ ID NO:122)
T11 sequence: RAITSTLASSFKRRR

[12] = tested on: T12, peptide KRPGKKGSNKRPGKR (SEQ ID NO:28)
T12 sequence: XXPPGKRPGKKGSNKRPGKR

[13] = tested on: T13, gravin peptide KKFFTQGWAGWRKKTSFRKP (SEQ ID NO:154)
T13 sequence: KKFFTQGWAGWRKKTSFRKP

[14] = tested on: T14, peptide PVNKRSKYTMMK (SEQ ID NO:59)
T14 sequence: XXPPGPVNKRSKYTMMK

[15] = tested on: T15, peptide LLKKRDSFRTPRDSKLE (SEQ ID NO:22)
T15 sequence: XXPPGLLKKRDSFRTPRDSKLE

[16] = tested on: T16, PLD1 peptide KYKAFIRIPIPTRRHTFRRQ (SEQ ID NO:161)
T16 sequence: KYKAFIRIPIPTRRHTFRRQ

[17] = tested on: T17, p47phox peptide QAQRQIKRGAPPRRSSIRNA (SEQ ID NO:146)
T17 sequence: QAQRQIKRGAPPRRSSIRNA

[18] = tested on: T18, PKD1 peptide RVVQSVKHTKRKSSTVMK (SEQ ID NO:149)
T18 sequence: RVVQSVKHTKRKSSTVMK

[19] = tested on: T19, peptide WKGKRRSKARKKRK (SEQ ID NO:13)
T19 sequence: XXPPGWKGKRRSKARKKRK

[20] = tested on: T20, ADD2 peptide KKKFRTPSFLKKSKK (SEQ ID NO:95)
T20 sequence: KKKFRTPSFLKKSKK

[21] = tested on: T21, peptide VLAKKGTSKTPVPE (SEQ ID NO:44)
T21 sequence: XXPPGVLAKKGTSKTPVPE

[22] = tested on: T22, peptide ENLRKVTTDKKSLAY (SEQ ID NO:54)
T22 sequence: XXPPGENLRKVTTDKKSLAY

[23] = tested on: T23, Myt1 kinase peptide PPRTPGWHQLQPRRVSFRGE (SEQ ID NO:163)
T23 sequence: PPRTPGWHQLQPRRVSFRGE

[24] = tested on: T24, MARCKS peptide KKKRFSFKKSFKLSGFSFKK (SEQ ID NO:111)
T24 sequence: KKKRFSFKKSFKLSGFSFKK

[25] = tested on: T25, peptide KNVVKLLSSRRTQDR (SEQ ID NO:57)
T25 sequence: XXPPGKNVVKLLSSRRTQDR

[26] = tested on: T26, Urotensin-2 receptor peptide LYARLARAYRRSQRASFKRA (SEQ ID NO:159)
T26 sequence: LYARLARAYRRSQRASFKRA

[27] = tested on: T27, peptide KKRKKKSSKSLAHA (SEQ ID NO:27)
T27 sequence: XXPPGKKRKKKSSKSLAHA

[28] = tested on: T28, PARIS1 peptide EYLERRASRRRAV (SEQ ID NO:130)
T28 sequence: EYLERRASRRRAV

[29] = tested on: T29, NCF1 peptide GAPPRRSSIRNAH (SEQ ID NO:101)
T29 sequence: GAPPRRSSIRNAH

[30] = tested on: T30, pleckstrin 1 peptide KAIKAIEGGQKFARKSTRRS (SEQ ID NO:126)
T30 sequence: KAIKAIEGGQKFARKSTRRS

[31] = tested on: T31, MYBPC3 peptide LLKKRDSFRTPRDSKLE (SEQ ID NO:103)
T31 sequence: LLKKRDSFRTPRDSKLE

[32] = tested on: T32, dag kinase iota peptide NRKKKRTSFKRKA (SEQ ID NO:117)
T32 sequence: NRKKKRTSFKRKA

[33] = tested on: T33, HERG peptide TELEGGFSRQRKRKLSFRRR (SEQ ID NO:140)
T33 sequence: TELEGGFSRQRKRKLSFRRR

[34] = tested on: T34, MLK3 peptide QQVDRERPHVRRRRGTFKRS (SEQ ID NO:128)
T34 sequence: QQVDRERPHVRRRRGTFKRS

[35] = tested on: T35, peptide VFREHQRSGSYHVRE (SEQ ID NO:45)
T35 sequence: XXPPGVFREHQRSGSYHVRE

[36] = tested on: T36, MacMARCKS peptide KKKFSFKKPFKLSGLSFKRN (SEQ ID NO:162)
T36 sequence: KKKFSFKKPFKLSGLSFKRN

[37] = tested on: T37, cyclophilin G peptide TEEKSKKRKKKHRKNSRKHK (SEQ ID NO:165)
T37 sequence: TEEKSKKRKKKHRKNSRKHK

[38] = tested on: T38, peptide ENLRRVATDRRHLGH (SEQ ID NO:50)
T38 sequence: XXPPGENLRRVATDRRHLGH

[39] = tested on: T39, peptide LALTARESSVRSGGAG (SEQ ID NO:69)
T39 sequence: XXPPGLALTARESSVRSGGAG

Substance PKC-delta has an in vitro phosphorylation (% of best substrate) [1] of 35, an in vitro phosphorylation, 1 uM peptide (% of best substrate) [2] of 41 and an in vitro phosphorylation, 10 uM peptide (% of best substrate) [2] of 23. It also gave an in vitro phosphorylation (% of best substrate) [3] of 34, an in vitro phosphorylation (% of best substrate) [4] of 9 and an in vitro phosphorylation (% of best substrate) [5] of 5. For the same substance, the in vitro phosphorylation, 1 uM peptide (% of best substrate) [6] was 38, the in vitro phosphorylation, 10 uM peptide (% of best substrate) [6] was 16 and the in vitro phosphorylation (% of best substrate) [7] was 2. The in vitro phosphorylation, 1 uM peptide (% of best substrate) [8] was 46, the in vitro phosphorylation, 10 uM peptide (% of best substrate) [8] was 52 and the in vitro phosphorylation, 1 uM peptide (% of best substrate) [9] was 33. For the same substance, the in vitro phosphorylation, 10 uM peptide (% of best substrate) [9] was 32, the in vitro phosphorylation (% of best substrate) [10] was 2 and the in vitro phosphorylation, 1 uM peptide (% of best substrate) [11] was 55. It also gave an in vitro phosphorylation, 10 uM peptide (% of best substrate) [11] of 24, an in vitro phosphorylation (% of best substrate) [12] of 8 and an in vitro phosphorylation, 1 uM peptide (% of best substrate) [13] of 26. The in vitro phosphorylation, 10 uM peptide (% of best substrate) [13] was 14, the in vitro phosphorylation (% of best substrate) [14] was 1 and the in vitro phosphorylation (% of best substrate) [15] was 12. The in vitro phosphorylation, 1 uM peptide (% of best substrate) [16] was 22, the in vitro phosphorylation, 10 uM peptide (% of best substrate) [16] was 14 and the in vitro phosphorylation, 1 uM peptide (% of best substrate) [17] was 33. It also gave an in vitro phosphorylation, 10 uM peptide (% of best substrate) [17] of 14, an in vitro phosphorylation, 1 uM peptide (% of best substrate) [18] of 20 and an in vitro phosphorylation, 10 uM peptide (% of best substrate) [18] of 17. For the same substance, the in vitro phosphorylation (% of best substrate) [19] was 22, the in vitro phosphorylation (% of best substrate) [20] was 25 and the in vitro phosphorylation (% of best substrate) [21] was 2. The in vitro phosphorylation (% of best substrate) [22] was 2, the in vitro phosphorylation, 1 uM peptide (% of best substrate) [23] was 13 and the in vitro phosphorylation, 10 uM peptide (% of best substrate) [23] was 21. For the same substance, the in vitro phosphorylation (% of best substrate) [24] was 16, the in vitro phosphorylation (% of best substrate) [25] was 2 and the in vitro phosphorylation, 1 uM peptide (% of best substrate) [26] was 15. The in vitro phosphorylation, 10 uM peptide (% of best substrate) [26] was 12, the in vitro phosphorylation (% of best substrate) [27] was 8 and the in vitro phosphorylation, 1 uM peptide (% of best substrate) [28] was 46. It also gave an in vitro phosphorylation, 10 uM peptide (% of best substrate) [28] of 20, an in vitro phosphorylation (% of best substrate) [29] of 13 and an in vitro phosphorylation, 1 uM peptide (% of best substrate) [30] of 47. For the same substance, the in vitro phosphorylation, 10 uM peptide (% of best substrate) [30] was 43, the in vitro phosphorylation (% of best substrate) [31] was 12 and the in vitro phosphorylation, 1 uM peptide (% of best substrate) [32] was 100. It also gave an in vitro phosphorylation, 10 uM peptide (% of best substrate) [32] of 79, an in vitro phosphorylation, 1 uM peptide (% of best substrate) [33] of 44 and an in vitro phosphorylation, 10 uM peptide (% of best substrate) [33] of 49. The in vitro phosphorylation, 1 uM peptide (% of best substrate) [34] was 46, the in vitro phosphorylation, 10 uM peptide (% of best substrate) [34] was 57 and the in vitro phosphorylation (% of best substrate) [35] was 2. The in vitro phosphorylation, 1 uM peptide (% of best substrate) [36] was 21, the in vitro phosphorylation, 10 uM peptide (% of best substrate) [36] was 13 and the in vitro phosphorylation, 1 uM peptide (% of best substrate) [37] was 25. It also gave an in vitro phosphorylation, 10 uM peptide (% of best substrate) [37] of 19, an in vitro phosphorylation (% of best substrate) [38] of 2 and an in vitro phosphorylation (% of best substrate) [39] of 1.

— patent US20050064507
